Our source for the koff, kon and Kd values is patent publication US20240309060A1, “POLYPEPTIDE BAX/NPM INHIBITORS” (TRUSTEES OF BOSTON UNIVERSITY, priority 2023, published 2024).

Assay [1] concerns the target human nucleophosmin 1 (NPM1) (human), P06748. Description: SPR on human NPM1, mean of at least three peptide concentrations below saturation.
For assay [2] the target is unchanged. Description: SPR on human NPM1, KD calculated as koff/kon.

Square brackets hold non-standard residues; d marks the D form. βAla = NCCC(=O)O

Chain of human nucleophosmin 1 (NPM1) (human), P06748 (P06748 whole entry): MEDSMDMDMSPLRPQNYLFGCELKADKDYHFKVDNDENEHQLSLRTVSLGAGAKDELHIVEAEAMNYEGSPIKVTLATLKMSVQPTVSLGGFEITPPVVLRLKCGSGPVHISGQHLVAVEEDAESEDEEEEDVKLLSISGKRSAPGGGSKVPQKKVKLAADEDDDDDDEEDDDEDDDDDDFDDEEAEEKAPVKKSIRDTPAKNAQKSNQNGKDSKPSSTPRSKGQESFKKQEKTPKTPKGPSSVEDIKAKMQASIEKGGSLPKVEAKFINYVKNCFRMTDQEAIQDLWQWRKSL

B1: NPMB1-I-010 (peptide)
peptide: Ac-KKRRRKKRRRKKRRRK[βAla]TVTIFVAGVLTASLTIWKKMG-OH
SMILES: CC[C@H](C)[C@H](NC(=O)[C@@H](NC(=O)[C@H](CC(C)C)NC(=O)[C@H](CO)NC(=O)[C@H](C)NC(=O)[C@@H](NC(=O)[C@H](CC(C)C)NC(=O)[C@@H](NC(=O)CNC(=O)[C@H](C)NC(=O)[C@@H](NC(=O)[C@H](Cc1ccccc1)NC(=O)[C@@H](NC(=O)[C@@H](NC(=O)[C@@H](NC(=O)[C@@H](NC(=O)CCNC(=O)[C@H](CCCCN)NC(=O)[C@H](CCCNC(=N)N)NC(=O)[C@H](CCCNC(=N)N)NC(=O)[C@H](CCCNC(=N)N)NC(=O)[C@H](CCCCN)NC(=O)[C@H](CCCCN)NC(=O)[C@H](CCCNC(=N)N)NC(=O)[C@H](CCCNC(=N)N)NC(=O)[C@H](CCCNC(=N)N)NC(=O)[C@H](CCCCN)NC(=O)[C@H](CCCCN)NC(=O)[C@H](CCCNC(=N)N)NC(=O)[C@H](CCCNC(=N)N)NC(=O)[C@H](CCCNC(=N)N)NC(=O)[C@H](CCCCN)NC(=O)[C@H](CCCCN)NC(C)=O)[C@@H](C)O)C(C)C)[C@@H](C)O)[C@@H](C)CC)C(C)C)C(C)C)[C@@H](C)O)[C@@H](C)O)C(=O)N[C@@H](Cc1c[nH]c2ccccc12)C(=O)N[C@@H](CCCCN)C(=O)N[C@@H](CCCCN)C(=O)N[C@@H](CCSC)C(=O)NCC(=O)O
B1: in assay [1], the koff (as a rule, a measure of how fast the partners let go of each other) came to 0.0616 s⁻¹ and the kon – broadly, a measure of how fast the partners come together – turned out to be 73200 M⁻¹ s⁻¹. Moreover, the Kd (as a rule, a measure of binding affinity in units of concentration) in assay [2] is 0.842 µM.

B2: NPMB1-I-011 (peptide)
peptide: Ac-RREEERREEERREEEK[βAla]TVTIFVAGVLTASLTIWKKMG-OH
SMILES: CC[C@H](C)[C@H](NC(=O)[C@@H](NC(=O)[C@H](CC(C)C)NC(=O)[C@H](CO)NC(=O)[C@H](C)NC(=O)[C@@H](NC(=O)[C@H](CC(C)C)NC(=O)[C@@H](NC(=O)CNC(=O)[C@H](C)NC(=O)[C@@H](NC(=O)[C@H](Cc1ccccc1)NC(=O)[C@@H](NC(=O)[C@@H](NC(=O)[C@@H](NC(=O)[C@@H](NC(=O)CCNC(=O)[C@H](CCCCN)NC(=O)[C@H](CCC(=O)O)NC(=O)[C@H](CCC(=O)O)NC(=O)[C@H](CCC(=O)O)NC(=O)[C@H](CCCNC(=N)N)NC(=O)[C@H](CCCNC(=N)N)NC(=O)[C@H](CCC(=O)O)NC(=O)[C@H](CCC(=O)O)NC(=O)[C@H](CCC(=O)O)NC(=O)[C@H](CCCNC(=N)N)NC(=O)[C@H](CCCNC(=N)N)NC(=O)[C@H](CCC(=O)O)NC(=O)[C@H](CCC(=O)O)NC(=O)[C@H](CCC(=O)O)NC(=O)[C@H](CCCNC(=N)N)NC(=O)[C@H](CCCNC(=N)N)NC(C)=O)[C@@H](C)O)C(C)C)[C@@H](C)O)[C@@H](C)CC)C(C)C)C(C)C)[C@@H](C)O)[C@@H](C)O)C(=O)N[C@@H](Cc1c[nH]c2ccccc12)C(=O)N[C@@H](CCCCN)C(=O)N[C@@H](CCCCN)C(=O)N[C@@H](CCSC)C(=O)NCC(=O)O
In assay [1], B2 gave an off-rate constant (koff) of 0.0299 s⁻¹ and a kon of 88500 M⁻¹ s⁻¹. Moreover, the Kd in assay [2] is 0.337 µM.
